From paper PMC8034623 come the findings set out here.

Assay in all cases: EMSA
The target of series [1] is T1, LuxR (Vibrio alginolyticus, UniProt B4X9Q4 1-204).
T1 sequence: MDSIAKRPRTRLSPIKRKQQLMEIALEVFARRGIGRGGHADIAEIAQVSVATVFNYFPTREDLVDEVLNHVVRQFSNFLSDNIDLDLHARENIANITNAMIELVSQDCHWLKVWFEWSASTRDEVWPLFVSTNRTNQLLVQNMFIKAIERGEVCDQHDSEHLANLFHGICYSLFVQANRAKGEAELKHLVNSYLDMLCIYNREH

In series [2] the target is T2, LuxR K16A (Vibrio alginolyticus, UniProt B4X9Q4 1-204, K16A).
T2 sequence: T1 sequence with K16A

Series [3] concerns the target T3, LuxR R11A (Vibrio alginolyticus, UniProt B4X9Q4 1-204, R11A).
T3 sequence: T1 sequence with R11A

Series [4] deals with T4, LuxR R9/11A (Vibrio alginolyticus, UniProt B4X9Q4 1-204, R9A;R11A).
T4 sequence: T1 sequence with R9A, R11A

Series [5] has as its target T5, LuxR ΔLuxR-arm (Vibrio alginolyticus, UniProt B4X9Q4 12-204, del2-11).
T5 sequence: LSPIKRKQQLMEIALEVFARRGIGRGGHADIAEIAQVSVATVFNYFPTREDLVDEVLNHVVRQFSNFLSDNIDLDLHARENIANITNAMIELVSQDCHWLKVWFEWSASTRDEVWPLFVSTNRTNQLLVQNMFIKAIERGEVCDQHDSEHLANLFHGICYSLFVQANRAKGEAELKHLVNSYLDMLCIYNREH

The target in series [6] is T6, LuxR R9A (Vibrio alginolyticus, UniProt B4X9Q4 1-204, R9A).
T6 sequence: T1 sequence with R9A

The target in series [7] is T1, LuxR. This is another data set of the same source.
The target in series [8] is T1, LuxR. The source holds these as a separate data set.

Changes are numbered by the printed parent chain. Numbers in names are those of the source. Where two headings read alike, the source gives them in different places.

B1: GC-rich control 51-bp (dsDNA)
DNA 1: CTAAATTTATCAATACCGCGTCACGGAGGGGTGCGCCATTGTTCTACAGAT
DNA 2: ATCTGTAGAACAATGGCGCACCCCTCCGTGACGCGGTATTGATAAATTTAG
As for B1, the binding result in series [1] is “no binding”.

B2: actDNA 51-bp probe (dsDNA)
DNA 1: CTAAATTTATCAATAATAATGACATTACTGTATATAAATTGTTCTACAGAT
DNA 2: ATCTGTAGAACAATTTATATACAGTAATGTCATTATTATTGATAAATTTAG
One may read the Kd as the equilibrium constant for the complex coming apart. Lower therefore signals a tighter complex. Take B2: the Kd came to 329 nM in series [2], 449 nM in series [1] and 698 nM in series [6]. Also, the binding result in series [3], in series [4] and in series [5] was “no binding” throughout.

B3: AM4 (A17C, T18A) (dsDNA)
DNA 1: B2 DNA 1 with A32C, T33A
DNA 2: B2 DNA 2 with A19T, T20G
Turning to B3, the binding result in series [7] is on record as “binds”.

B4: AM7 (A3C) (dsDNA)
DNA 1: B2 DNA 1 with A18C
DNA 2: B2 DNA 2 with T34G
In the case of B4, the Kd in series [1] amounted to 636 nM.

B5: AM2 (A4T, T18A) (dsDNA)
DNA 1: B2 DNA 1 with A19T, T33A
DNA 2: B2 DNA 2 with A19T, T33A
As for B5, the binding result in series [7] is given as “binds”.

B6: AM6 (A4T) (dsDNA)
DNA 1: B2 DNA 1 with A19T
DNA 2: B2 DNA 2 with T33A
As to B6, the binding result in series [8] is listed as “binds”.

B7: AM3 (T18A) (dsDNA)
DNA 1: B2 DNA 1 with T33A
DNA 2: B2 DNA 2 with A19T
For the molecule B7, the binding result in series [7] is recorded as “binds”.

B8: AM1 (T2A) (dsDNA)
DNA 1: B2 DNA 1 with T17A
DNA 2: B2 DNA 2 with A35T
Regarding B8, in series [1], the affinity, expressed as Kd, was 1690 nM.

B9: AM5 (A1T, A4T, A22T) (dsDNA)
DNA 1: B2 DNA 1 with A16T, A19T, A37T
DNA 2: B2 DNA 2 with T15A, T33A, T36A
Turning to B9, in series [8], the binding result was “binds”.

B10: repDNA 51-bp probe (dsDNA)
DNA 1: CTAAATTTATCAATATTATTGATAAAATTATCAATATATTGTTCTACAGAT
DNA 2: ATCTGTAGAACAATATATTGATAATTTTATCAATAATATTGATAAATTTAG
For B10, the dissociation constant Kd in series [1] came out at 157 nM; in series [3], 1060 nM; in series [6] it was 434 nM.
